Data taken from patent publication US20240369535A1, “METHODS AND MATERIALS FOR DETERMINING pGC TARGET DOSAGE” (Mayo Foundation for Medical Education and Research, priority 2021, published 2024).

Tests used:
human GC-A [1] = molecular target: T1, human GC-A (Homo sapiens, UniProt P16066); assay: Ex vivo MCUF-651 therapeutic potency assay with human plasma (Example 2), HEK293 overexpressing human GC-A; assay type: cell-based
T1 construct: expressed in transfected cells
T1 sequence (P16066 33-1061): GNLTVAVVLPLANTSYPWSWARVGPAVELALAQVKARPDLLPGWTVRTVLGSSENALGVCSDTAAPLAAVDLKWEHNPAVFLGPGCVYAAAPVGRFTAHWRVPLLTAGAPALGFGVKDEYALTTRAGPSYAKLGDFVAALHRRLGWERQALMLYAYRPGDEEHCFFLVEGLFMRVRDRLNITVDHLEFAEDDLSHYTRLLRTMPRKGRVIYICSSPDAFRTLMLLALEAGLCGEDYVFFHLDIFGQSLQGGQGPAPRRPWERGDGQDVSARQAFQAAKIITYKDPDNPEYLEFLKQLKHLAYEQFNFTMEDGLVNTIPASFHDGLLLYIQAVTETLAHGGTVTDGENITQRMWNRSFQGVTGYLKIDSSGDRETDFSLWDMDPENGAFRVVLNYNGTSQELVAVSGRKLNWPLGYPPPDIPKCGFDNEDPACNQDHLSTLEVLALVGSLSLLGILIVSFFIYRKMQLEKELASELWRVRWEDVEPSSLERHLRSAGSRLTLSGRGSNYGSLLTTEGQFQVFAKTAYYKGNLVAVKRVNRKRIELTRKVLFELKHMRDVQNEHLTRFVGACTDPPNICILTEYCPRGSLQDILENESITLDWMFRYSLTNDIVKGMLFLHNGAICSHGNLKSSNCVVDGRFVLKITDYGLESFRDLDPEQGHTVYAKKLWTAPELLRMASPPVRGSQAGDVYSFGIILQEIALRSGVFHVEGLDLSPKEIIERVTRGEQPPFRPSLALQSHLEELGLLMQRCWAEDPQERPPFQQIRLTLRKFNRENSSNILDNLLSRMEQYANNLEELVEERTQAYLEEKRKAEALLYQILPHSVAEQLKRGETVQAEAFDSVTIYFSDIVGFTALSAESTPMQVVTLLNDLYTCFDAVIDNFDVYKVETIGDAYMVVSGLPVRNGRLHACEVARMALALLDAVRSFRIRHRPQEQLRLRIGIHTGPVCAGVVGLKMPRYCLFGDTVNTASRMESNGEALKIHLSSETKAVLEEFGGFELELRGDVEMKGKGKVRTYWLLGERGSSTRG
Procedure: Ex Vivo MCUF-651 Therapeutic Potency Assay with Human Plasma from Normal Subjects and Patients with Hypertension and Heart Failure: Stored human plasma samples from normal subjects and patients with HT and HF were utilized. The details of the recruitment of these participants were as described elsewhere (Reginauld et al., supra; and Ferrario et al., Hypertension 77:882-890, 2021). […] HEK293 overexpressing human GC-A were cultured and grown as described above. Cells were grown in 48-well plates to 80-90% confluence. On the day of the experiment, cells were pre-incubated with MCUF-651 at doses of 1, 5, or 10 μM or with vehicle (Veh) in 250 μL treatment buffer (as described above) for 5 minutes at 37° C. 25 μL of human plasma was then added and incubated for additional 10 minutes. Cells were then washed with PBS once and lysed with 0.1 M HCl, and intracellular cGMP levels were measured in the lysate using a commercial cGMP ELISA kit (Enzo Life Sciences, Farmingdale, NY) as instructed by the manufacturer.

human pGC-A [2] = molecular target: T2, human pGC-A (Homo sapiens, UniProt P16066); assay: MCUF-651/NP/pGC-A/cGMP potency assay (Example 5), HEK293 cells overexpressing human pGC-A; assay type: cell-based; details: for cGMP potency: particularly at 5 and 10 μM
T2 construct: expressed in transfected cells
T2 sequence (P16066 33-1061): T1 sequence (P16066 33-1061)
Procedure: (§1) In vitro Cell Culture: HEK 293 cells were stably transfected with human pGC-A or pGC-B using LIPOFECTAMINE™ (Invitrogen, Grand Island, NY) (Chen et al. 2020, supra). Transfected cells (HEK/GC-A or (HEK/GC-B) were maintained in DMEM supplemented with 10% FBS and 250 μg/ml G418. Cells in 48-well plates were grown to 80-90% confluency and then incubated in Hanks Balanced Salt Solution (HBSS, Invitrogen) containing 20 mM HEPES, 0.1% BSA, and 0.5 mM 3-isobutyl-1-methylxanthine (IBMX, Sigma).
MCUF-651/NP/pGC-A/cGMP Potency Assay: Human plasma samples from patients with HT (N=6), ADHF (N=6), and CKD (N=5) were utilized. The details of the recruitment of participants are described above. Stably transfected HEK293 cells engineered to overexpress human pGC-A were cultured (as described above) and grown in 48-well plates to 80-90% confluence. On the day of the experiment, human plasma was diluted 10× with HBSS. 250 μl of diluted plasma was added together with vehicle (DSMO) or the MCUF-651 small molecule pGC-A positive allosteric modulator at doses of 1, 5, or 10 μM to the HEK/pGC-A cells and incubated for 10 minutes at 37° C. Cells were then washed with PBS once and lysed with 0.1 M HCl, and intracellular cGMP levels were measured in the lysate using a commercial cGMP ELISA kit (Enzo Life Sciences, Farmingdale, NY) as instructed by the manufacturer.

human GC-A [3] = molecular target: T1, human GC-A; assay: NP/GC-A/cGMP potency assay (Example 1): cGMP production in HEK293 cells overexpressing human GC-A; assay type: cell-based
Procedure: Transfected cells (HEK/GCA) were maintained in Dulbecco Modified Eagle medium (DMEM) supplemented with 10% FBS, and 250 μg/ml G418. Cells in 48-well plates were grown to 80-90% confluency and then incubated in Hanks Balanced Salt Solution (HBSS, Invitrogen) containing 20 mM HEPES, 0.1% BSA and 0.5 mM 3-isobutyl-1-methylxanthine (IBMX, Sigma).
A stable transfected cell line of HEK293 cells engineered to overexpress human GC-A was grown in 48-well plates to 80-90% confluency. […] Studies were repeated with human plasma with or without addition of the designer GC-A activator, MANP, at doses of 10^−10 M and 10^−8 M.

human pGC-B = molecular target: T3, human pGC-B (Homo sapiens, UniProt P20594); assay: NP/pGC-B/cGMP potency assay (Example 5), HEK293 cells overexpressing human pGC-B; assay type: cell-based; details: ADHF plasma
T3 construct: expressed in transfected cells
T3 sequence (P20594 23-1047): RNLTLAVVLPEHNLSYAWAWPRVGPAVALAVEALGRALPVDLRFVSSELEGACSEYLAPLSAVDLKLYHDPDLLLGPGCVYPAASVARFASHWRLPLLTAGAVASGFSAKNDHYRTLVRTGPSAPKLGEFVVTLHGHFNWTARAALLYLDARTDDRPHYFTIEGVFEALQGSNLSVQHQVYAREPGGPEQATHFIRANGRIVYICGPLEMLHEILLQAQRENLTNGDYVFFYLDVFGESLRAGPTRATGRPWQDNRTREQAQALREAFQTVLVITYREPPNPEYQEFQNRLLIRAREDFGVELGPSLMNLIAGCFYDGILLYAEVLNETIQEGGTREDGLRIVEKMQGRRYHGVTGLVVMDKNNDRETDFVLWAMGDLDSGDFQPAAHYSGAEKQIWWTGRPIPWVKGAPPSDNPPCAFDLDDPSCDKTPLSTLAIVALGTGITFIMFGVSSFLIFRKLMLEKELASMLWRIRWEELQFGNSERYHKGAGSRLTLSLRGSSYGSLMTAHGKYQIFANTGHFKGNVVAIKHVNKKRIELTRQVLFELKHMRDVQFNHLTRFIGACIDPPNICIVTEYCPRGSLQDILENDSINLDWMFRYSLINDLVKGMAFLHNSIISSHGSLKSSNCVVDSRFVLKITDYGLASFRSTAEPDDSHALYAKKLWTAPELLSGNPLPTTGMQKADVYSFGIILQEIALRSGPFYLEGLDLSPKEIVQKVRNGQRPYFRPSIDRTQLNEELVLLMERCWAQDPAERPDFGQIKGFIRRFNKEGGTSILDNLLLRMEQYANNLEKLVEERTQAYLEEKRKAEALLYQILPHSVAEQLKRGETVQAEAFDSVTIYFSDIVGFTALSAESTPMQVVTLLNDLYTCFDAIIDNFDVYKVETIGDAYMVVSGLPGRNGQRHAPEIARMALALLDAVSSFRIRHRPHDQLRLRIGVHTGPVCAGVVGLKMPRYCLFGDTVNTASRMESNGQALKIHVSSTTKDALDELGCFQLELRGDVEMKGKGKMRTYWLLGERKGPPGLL
Procedure: as §1
NP/pGC-B/cGMP Potency Assay: Human plasma samples from patients with ADHF (N=6) were utilized. Stably transfected HEK293 cells engineered to overexpress human pGC-B were cultured (as described above) and grown in 48-well plates to 80-90% confluence. On the day of the experiment, human plasma was diluted 10× with HBSS. Diluted plasma (250 μl) was added together with vehicle (PBS), native CNP (an endogenous pGC-B activator), C53 (a designer CNP analog/pGC-B activator) or CRRL-408 (a designer dual pGC-A and pGC-B activator) at doses of 10^−10, 10^−8, or 10^−7 M to the HEK/GC-B cells and incubated for 10 minutes at 37° C. Afterwards, cells were washed once with PBS and lysed with 0.1M HCl. cGMP was then assayed using an ELISA (Enzo Life Sciences) as described elsewhere (Chen et al. 2018, supra).

[4] = molecular target: human pGC-A receptor (human) (UniProt P16066); assay: cell-based or functional assay
human pGC-A [5] = molecular target: T2, human pGC-A; assay: NP/pGC-A/cGMP potency assay (Example 5), HEK293 cells overexpressing human pGC-A; assay type: cell-based
Procedure: as §1
NP/pGC-A/cGMP Potency Assay: Human plasma samples from patients with HT (N=6), ADHF (N=6), and CKD (N=5) were utilized. Stably transfected HEK293 cells engineered to overexpress human pGC-A were cultured (as described above) and were grown in 48-well plates to 80-90% confluence. On the day of the experiment, human plasma was diluted 10× with HBSS. […] Afterwards, the cells were washed once with PBS and lysed with 0.1M HCl. cGMP was then assayed using an ELISA (Enzo Life Sciences) as described elsewhere (Chen et al. 2018, supra).

## CN(C)CCN1CCCC(C(=O)Nc2nc3c(F)cc(F)cc3s2)C1 (stereo not drawn) [MCUF-651]
Human GC-A [1]; 1, 5 or 10 μM, plasma from normal subjects, hypertensive and HF patients (all three cohorts)
  generation of cGMP levels: potentiated
Human GC-A [1]; HF plasma, highest circulating ANP and BNP
  cGMP potency compared between cohorts: greatest cGMP potency
Human pGC-A [2]; ADHF plasma with higher circulating ANP and BNP
  cGMP potency: higher cGMP potency
Human pGC-A [2]; ADHF plasma with lower circulating ANP and BNP
  cGMP potency: lower cGMP potency
Human pGC-A [2]; ADHF plasma, dose 1 μM
  cGMP levels: modestly potentiated
Human pGC-A [2]; ADHF plasma, dose 5 μM
  cGMP levels: markedly potentiated
Human pGC-A [2]; ADHF plasma, dose 10 μM
  cGMP levels: markedly potentiated
Human pGC-A [2]; CKD plasma, dose 1 μM
  cGMP levels: no response
Human pGC-A [2]; CKD plasma, dose 5 μM
  cGMP levels: minimally potentiated
Human pGC-A [2]; CKD plasma, dose 10 μM
  cGMP levels: minimally potentiated
Human pGC-A [2]; HT plasma, dose 1 μM
  cGMP levels: modestly potentiated
Human pGC-A [2]; HT plasma, dose 5 μM
  cGMP levels: markedly potentiated
Human pGC-A [2]; HT plasma, dose 10 μM
  cGMP levels: markedly potentiated

## B-type natriuretic peptide [BNP, reference compound]
Human GC-A [3]; synthetic peptide alone, concentrations corresponding to ADHF deficient ANP and BNP plasma (ANP 16.8, BNP 47.4 pg/mL), 10 min
  mean cGMP level: 6.9 ± 0.9 pmol/mL
Human GC-A [3]; synthetic peptide alone, concentrations corresponding to ADHF elevated ANP and BNP plasma (ANP 350, BNP 1225.7 pg/mL), 10 min
  mean cGMP level: 80.3 ± 16.9 pmol/mL
Human GC-A [3]; synthetic peptide alone, concentrations mimicking healthy subject plasma (ANP 25.5, BNP 27 pg/mL), 10 min
  mean cGMP level: 4.7 ± 0.4 pmol/mL

## C53: designer pGC-B activator, 53 amino acid intermediate form of CNP (SEQ ID NO:5) (DLRVDTKSRAAWARLLQEHPNARKYKGANKKGLSKGCFGLKLDRIGSMSGLGC)
Human pGC-B; dose 10^-8 M
  cGMP levels: markedly potentiated
Human pGC-B; dose 10^-10 M (in a single patient)
  cGMP levels: modestly potentiated

## C-type natriuretic peptide [CNP, reference compound]
Human pGC-B; dose 10^-8 M
  cGMP levels: markedly potentiated

## MANP (designer pGC-A activator) (peptide)
[4]
  cGMP in HEK293 cells overexpressing human GC-A; plasma of ADHF patients with elevated ANP and BNP plus 10^-8 M MANP: 201 pmol/mL
  cGMP in HEK293 cells overexpressing human GC-A; plasma of ADHF patients with elevated ANP and BNP plus 10^-10 M MANP: 60.4 pmol/mL

## MANP: designer pGC-A activator, polypeptide SLRRSSCFGGRMDRIGAQSGLGCNSFRYRITAREDKQGWA (SEQ ID NO:1)
Human GC-A [3]; healthy plasma + 10^-8 M MANP
  mean cGMP level: 167 ± 14.1 pmol/mL
Human GC-A [3]; healthy plasma + 10^-10 M MANP
  mean cGMP level: 45 ± 5.5 pmol/mL
Human GC-A [3]; plasma of deficient ANP and BNP ADHF patients + 10^-8 M MANP
  mean cGMP level: 166.9 ± 9.1 pmol/mL
Human GC-A [3]; plasma of deficient ANP and BNP ADHF patients + 10^-10 M MANP
  mean cGMP level: 33.8 ± 1.4 pmol/mL
Human GC-A [3]; plasma of elevated ANP and BNP ADHF patients + 10^-8 M MANP
  mean cGMP level: 200.8 ± 5.4 pmol/mL
Human GC-A [3]; plasma of elevated ANP and BNP ADHF patients + 10^-10 M MANP
  mean cGMP level: 60.4 ± 9.7 pmol/mL
Human pGC-A [5]; ADHF plasma, dose 10^-8 M
  cGMP levels: markedly potentiated
Human pGC-A [5]; ADHF plasma, dose 10^-10 M
  cGMP levels: modestly potentiated
Human pGC-A [5]; CKD plasma, dose 10^-8 M
  cGMP levels: markedly potentiated
Human pGC-A [5]; CKD plasma, dose 10^-10 M
  cGMP levels: modestly potentiated
Human pGC-A [5]; HT plasma, dose 10^-8 M
  cGMP levels: markedly potentiated
Human pGC-A [5]; HT plasma, dose 10^-10 M
  cGMP levels: modestly potentiated

## synthetic human BNP (from UniProt P16860 103-134) (ligand)
[4]
  cGMP in HEK293 cells overexpressing human GC-A; synthetic BNP at the level of ADHF plasma with elevated ANP and BNP (1225.7 pg/mL): 80.3 pmol/mL
  mean cGMP in HEK293 cells overexpressing human GC-A; synthetic BNP at 27 pg/mL (level of healthy plasma): 4.7 pmol/mL
  mean cGMP in HEK293 cells overexpressing human GC-A; synthetic BNP at the level of ANP and BNP deficient ADHF plasma (47.4 pg/mL): 6.9 pmol/mL
